Experimental data: patent US20060287509A1 (University of California, published 2006)
Numbering of substitutions follows the chain as printed.

Legend:
[1] = molecular target: T1, c-erbB-2 ECD with a Ser-Gly-His6 C-terminal fusion (UniProt P04626 23-652); assay: SPR (BIAcore)
T1 construct: extracellular domain; expressed from CHO cells, IMAC purified; coupled to a CM5 chip, adsorbed to polystyrene, or biotinylated and captured on avidin; also called c-erbB-2 extracellular domain; biotinylated c-erbB-2 ECD

[2] = molecular target: T1, c-erbB-2 ECD with a Ser-Gly-His6 …; assay: SPR (BIAcore); remark: listed apart in the source
[3] = molecular target: T2, c-erbB-2 expressed on cells (SK-OV-3, SK-BR-3) (UniProt P04626 23-1255, limits assumed); assay: FACS, biotinylated sFv on SK-OV-3 cells
T2 construct: whole, on cells; also called native c-erbB-2 expressed on cells

[4] = molecular target: T1, c-erbB-2 ECD with a Ser-Gly-His6 …; assay: from SPR (BIAcore) Kd values
[5] = molecular target: T1, c-erbB-2 ECD with a Ser-Gly-His6 …; assay: SPR (BIAcore); clone eluted with 1 µM c-erbB-2 ECD
[6] = molecular target: T2, c-erbB-2 expressed on cells (SK-OV-3, …); assay: Scatchard after radioiodination, SK-OV-3 cells
[7] = molecular target: T1, c-erbB-2 ECD with a Ser-Gly-His6 …; assay: competition ELISA: sFv preincubated with soluble ECD (0-100 nM), free sFv read on immobilized ECD
[8] = molecular target: c-erbB-2 ECD with a Ser-Gly-His6 C-terminal fusion (UniProt P04626); assay: SPR (BIAcore)
[9] = molecular target: c-erbB-2 ECD with a Ser-Gly-His6 C-terminal fusion (UniProt P04626); assay: from SPR (BIAcore) Kd values

B1: C6ML3-9 (scFv)
scFv: QVQLLQSGAELKKPGESLKISCKGSGYSFTSYWIAWVRQMPGKGLEYMGLIYPGDSDTKYSPSFQGQVTISVDKSVSTAYLQWSSLKPSDSAVYFCARHDVGYCSSSNCAKWPEYFQHWGQGTLVTVSSGGGGSGGGGSGGGGSQSVLTQPPSVSAAPGQKVTISCSGSSSNIGNNYVSWYQQLPGTAPKLLIYGHTNRPAGVPDRFSGSKSGTSASLAISGFRSEDEADYYCASWDYTLSGWVFGGGTKLTVLG
notes: C6.5 with this VL CDR3; C-terminal myc and His6 tags; parent of the VH CDR3 libraries; also called C6ML3-9 (wt); wt C6ML3-9
B1 was tested, and the “fold increase in affinity vs wild-type sFv (C6.5)” value [1] was 16 fold, the kon [2] was 610000 M⁻¹ s⁻¹ and the “half life (t1/2) on the cell surface” value [3] was 11 min.

B2: C6-B1D2 (scFv)
chain: B1 scFv with S105T, S106D, S107R, N108T, Y115W, F116L, Q117G, H118V
With B2 the ΔΔGI [4] was -0.07 kcal/mol.

B3: C6-B1D5 (scFv)
chain: B1 scFv with S105T, S106D, S107R, N108T, Y115W, F116M, H118M
For B3, the ΔΔGI [4] was -0.4 kcal/mol.

B4: C6-9L1 (scFv)
chain: B1 scFv with A156G, K161W, G195D, H196N, T197N, N198K, A201S, K211Q, F223L
B4 gave a ΔΔGI [4] of 0.42 kcal/mol.

B5: C6-B1D1 (scFv)
chain: B1 scFv with S105T, S106D, S107R, N108T, Y115W, F116L, Q117H, H118V
With B5 the ΔΔGI [4] was -0.61 kcal/mol.

B6: C6-B1D3 (scFv)
chain: B1 scFv with S105T, S106D, S107R, N108T, Y115W, F116L, Q117D, H118N
B6 was tested, and the “fold lower Kd than wt C6.5” value [1] was 1230 fold and the ΔΔGI [4] was -0.53 kcal/mol.

B7: C6ML3-7 (scFv)
scFv: B1 scFv with S235A, T239A, L240V
notes: C6.5 with this VL CDR3; C-terminal myc and His6 tags
With B7 the “fold increase in affinity vs wild-type sFv (C6.5)” value [1] was 6 fold and the kon [2] was 650000 M⁻¹ s⁻¹.

B8: C6ML3-5 (scFv)
scFv: B1 scFv with S235A, T239S
notes: as for B7
B8 was tested, and the kon [2] was 590000 M⁻¹ s⁻¹ and the koff [5] was 0.0019 s⁻¹.

B9: C6MH3-B1 (scFv)
scFv: B1 scFv with S105T, S106D, S107R, N108T
notes: C6ML3-9 with this VH CDR3; C-terminal His6; also called C6MNH3-B1
With B9 the “half life (t1/2) on the cell surface” value [3] was 102 min.

B10: C6-12L1 (scFv)
chain: QVQLLQSGAELKKPGESLKISCKGSGYSFTSYWIAWVRQMPGKGLEYMGLIYPGDSDTKYSPSFQGQVTISVDKSVSTAYLQWSSLKPSDSAVYFCARHDVGYCSSSNCAKWPEYFQHWGQGTLVTVSSGGGGSGGGGSGGGGSQSVLTQPPSVSGAPGQWVTISCSGSSSNIGNNYVSWYQQLPGTAPKLLIYDNNKRPSGVPDRFSGSQSGTSASLAISGLRSEDEADYYCAAWDYSRSGWVFGGGTKLTVLG
B10 showed a ΔΔGI [4] of -0.18 kcal/mol.

B11: C6VLF (scFv)
chain: QVQLLQSGAELKKPGESLKISCKGSGYSFTSYWIAWVRQMPGKGLEYMGLIYPGDSDTKYSPSFQGQVTISVDKSVSTAYLQWSSLKPSDSAVYFCARHDVGYCSSSNCAKWPEYFQHWGQGTLVTVSSGGGGSGGGGSGGGGSQSVLTQPPSMSAAPGQKVTISCSGSSSNIGNNYVSWYQQFPGTAPKLLIHDNNKRPSGIPDRISGSKSGTSASLAISGLQSDDEADYYCAAWDDSLNGWVFGGGTKLTVLG
Binder B11 has a Kd [6] of 79 nM and an IC50 [7] of 7.5 nM.

B12: C6VLE (scFv)
chain: QVQLLQSGAELKKPGESLKISCKGSGYSFTSYWIAWVRQMPGKGLEYMGLIYPGDSDTKYSPSFQGQVTISVDKSVSTAYLQWSSLKPSDSAVYFCARHDVGYCSSSNCAKWPEYFQHWGQGTLVTVSSGGGGSGGGGSGGGGSQSVLTQPPSVSAAAGQKVTISCSGSSSSIGRNYVSWNQQLPGTAPKLLIWRNNQRPSGVPDRFSGSKSGTSASLAISGVRSEDEADYYCASWDNSLSGWVFGGGTKLTVLG
For B12, the Kd [6] was 71 nM and the IC50 [7] was 2.8 nM.

B13: C6-B1L1 (scFv, part only; not given: linker and VL, part only)
scFv, part: QVQLLQSGAELKKPGSLKISCKGSGYSFTSWIAWVRQMPGKGLEYGLIYPGDSDTKYSPSQGQVTISVDKSVSTALQWSSLKPSDSAVYFARHDVGYCHDVGYCTDRTCAKWPYFQHTVS
Work on B13 yielded a Kd [8] of 0.63 nM, a Kd (C6.5)/Kd (mut) [8] of 25 and a Kd (parent)/Kd (mut) [8] of 0.19. The koff [8] was 0.00024 s⁻¹, the kon [8] was 380000 M⁻¹ s⁻¹ and the ΔΔGI [9] was 0.43 kcal/mol.

B14: C6-B47L1 (scFv, part only; not given: linker and VL, part only)
scFv, part: B13 scFv, part with T108S
In the case of B14, the Kd [8] is reported as 0.6 nM, the Kd (C6.5)/Kd (mut) [8] is reported as 27 and the Kd (parent)/Kd (mut) [8] is reported as 0.18. For the same binder, the koff [8] was 0.00018 s⁻¹, the kon [8] was 300000 M⁻¹ s⁻¹ and the ΔΔGI [9] was 0.45 kcal/mol.

B15: C6VLD (scFv)
chain: QVQLLQSGAELKKPGESLKISCKGSGYSFTSYWIAWVRQMPGKGLEYMGLIYPGDSDTKYSPSFQGQVTISVDKSVSTAYLQWSSLKPSDSAVYFCARHDVGYCSSSNCAKWPEYFQHWGQGTLVTVSSGGGGSGGGGSGGGGSQSVLTQPPSVSAAPGQKVTISCSGTNSNIGNNYVSWYQQLPGTAPKLLIYTNDQRPSGVPDRFSGSKSGTSASLAISGLQSEDEADYYCAAWDDSLNGWMFGGGTKLTVLG
In the case of B15, the Kd [6] is reported as 26 nM and the IC50 [7] is reported as 5.8 nM.
